Data published in PMC12668130, “RNA-induced PRC2 inhibition depends on the sequence of bound RNA”.

Assays:
[1] = biological target: PRC2 four-subunit holoenzyme (EZH2-EED-SUZ12-RBAP48) (UniProt Q15910-2;O75530;Q15022;Q09028 1-751;1-441;1-739;1-425); experiment: EMSA; 100 mM KCl; EMSA: 50 mM Tris-HCl pH 7.5 (25 C), 100 mM KCl, 2.5 mM MgCl2, 0.1 mM ZnCl2, 2 mM 2-mercaptoethanol, 0.05 mg/ml BSA, 0.05 mg/ml yeast tRNA, 5% glycerol, 30 C 30; settings: protein: recombinant; tags: MBP tags, removed by Prescission protease; copies: 1;1;1;1; label: 5'-32P (EMSA, UV); 5'-biotin (EM); no G4
[2] = biological target: PRC2 five-subunit (EZH2-EED-SUZ12-RBAP48-AEBP2) (UniProt Q15910-2;O75530;Q15022;Q09028;Q6ZN18-3 1-751;1-441;1-739;1-425;1-301); experiment: EMSA; 100 mM KCl; affinity near identical to six-subunit; EMSA: 50 mM Tris-HCl pH 7.5 (25 C), 100 mM KCl, 2.5 mM MgCl2, 0.1 mM ZnCl2, 2 mM 2-mercaptoethanol, 0.05 mg/ml BSA, 0.05 mg/ml yeast tRNA, 5% glycerol, 30 C 30; settings: protein: recombinant; tags: MBP tags, removed by Prescission protease; copies: 1;1;1;1;1; label: 5'-32P (EMSA, UV); 5'-biotin (EM); no G4

PRC2 four-subunit holoenzyme (EZH2-EED-SUZ12-RBAP48), sequence (Q15910 other isoform, or with tags, fused parts or gaps, chain 1 of 4): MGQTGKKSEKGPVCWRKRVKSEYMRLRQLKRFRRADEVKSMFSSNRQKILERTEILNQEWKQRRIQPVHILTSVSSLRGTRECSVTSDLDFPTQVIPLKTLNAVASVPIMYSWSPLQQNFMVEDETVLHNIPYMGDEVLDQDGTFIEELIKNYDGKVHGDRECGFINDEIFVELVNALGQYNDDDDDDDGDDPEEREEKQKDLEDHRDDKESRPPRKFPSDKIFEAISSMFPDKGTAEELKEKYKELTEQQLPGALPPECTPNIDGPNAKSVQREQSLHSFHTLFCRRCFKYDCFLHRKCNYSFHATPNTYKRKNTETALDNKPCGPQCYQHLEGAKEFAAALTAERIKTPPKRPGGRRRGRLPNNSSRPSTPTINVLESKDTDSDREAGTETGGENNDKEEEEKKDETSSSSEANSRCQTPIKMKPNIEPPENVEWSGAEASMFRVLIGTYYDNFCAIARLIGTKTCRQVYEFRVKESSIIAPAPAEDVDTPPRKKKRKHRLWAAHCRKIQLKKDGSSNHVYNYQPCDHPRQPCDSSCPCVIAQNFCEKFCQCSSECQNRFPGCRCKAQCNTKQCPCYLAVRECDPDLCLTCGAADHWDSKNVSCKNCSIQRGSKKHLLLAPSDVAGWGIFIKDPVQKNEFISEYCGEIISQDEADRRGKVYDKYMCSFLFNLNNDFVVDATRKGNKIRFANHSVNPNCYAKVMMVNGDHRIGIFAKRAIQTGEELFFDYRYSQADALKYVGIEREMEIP
PRC2 four-subunit holoenzyme (EZH2-EED-SUZ12-RBAP48), sequence (O75530 whole entry, chain 2 of 4): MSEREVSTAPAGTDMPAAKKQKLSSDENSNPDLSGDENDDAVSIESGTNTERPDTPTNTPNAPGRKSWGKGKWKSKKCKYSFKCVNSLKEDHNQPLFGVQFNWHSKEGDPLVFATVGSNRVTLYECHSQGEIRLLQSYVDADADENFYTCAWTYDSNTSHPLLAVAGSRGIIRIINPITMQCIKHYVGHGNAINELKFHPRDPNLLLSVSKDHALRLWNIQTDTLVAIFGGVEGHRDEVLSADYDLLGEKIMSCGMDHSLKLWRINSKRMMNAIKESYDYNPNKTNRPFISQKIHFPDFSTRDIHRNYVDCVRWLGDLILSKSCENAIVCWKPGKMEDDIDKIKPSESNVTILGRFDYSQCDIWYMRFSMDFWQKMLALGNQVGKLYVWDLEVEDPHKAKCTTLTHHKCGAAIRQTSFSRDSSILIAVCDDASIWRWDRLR
PRC2 four-subunit holoenzyme (EZH2-EED-SUZ12-RBAP48), sequence (Q15022 whole entry, chain 3 of 4): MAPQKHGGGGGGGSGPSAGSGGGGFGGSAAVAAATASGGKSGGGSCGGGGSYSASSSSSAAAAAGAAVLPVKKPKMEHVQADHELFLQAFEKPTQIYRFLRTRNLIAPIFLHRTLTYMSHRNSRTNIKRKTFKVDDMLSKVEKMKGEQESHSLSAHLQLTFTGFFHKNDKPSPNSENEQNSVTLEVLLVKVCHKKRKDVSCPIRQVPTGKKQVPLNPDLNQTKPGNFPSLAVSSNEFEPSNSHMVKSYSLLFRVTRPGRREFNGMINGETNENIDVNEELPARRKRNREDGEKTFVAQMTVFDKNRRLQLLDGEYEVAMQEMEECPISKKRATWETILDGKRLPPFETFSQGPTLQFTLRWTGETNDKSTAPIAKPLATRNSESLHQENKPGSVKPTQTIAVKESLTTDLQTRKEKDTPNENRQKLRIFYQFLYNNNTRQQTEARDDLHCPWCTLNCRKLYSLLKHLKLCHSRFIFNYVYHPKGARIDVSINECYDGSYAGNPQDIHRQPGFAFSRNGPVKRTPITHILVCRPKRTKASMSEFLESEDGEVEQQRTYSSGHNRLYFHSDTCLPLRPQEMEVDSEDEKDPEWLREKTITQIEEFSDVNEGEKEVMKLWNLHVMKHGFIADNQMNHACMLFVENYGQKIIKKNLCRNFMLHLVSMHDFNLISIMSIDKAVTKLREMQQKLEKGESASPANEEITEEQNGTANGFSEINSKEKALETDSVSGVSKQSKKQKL
PRC2 four-subunit holoenzyme (EZH2-EED-SUZ12-RBAP48), sequence (Q09028 whole entry, chain 4 of 4): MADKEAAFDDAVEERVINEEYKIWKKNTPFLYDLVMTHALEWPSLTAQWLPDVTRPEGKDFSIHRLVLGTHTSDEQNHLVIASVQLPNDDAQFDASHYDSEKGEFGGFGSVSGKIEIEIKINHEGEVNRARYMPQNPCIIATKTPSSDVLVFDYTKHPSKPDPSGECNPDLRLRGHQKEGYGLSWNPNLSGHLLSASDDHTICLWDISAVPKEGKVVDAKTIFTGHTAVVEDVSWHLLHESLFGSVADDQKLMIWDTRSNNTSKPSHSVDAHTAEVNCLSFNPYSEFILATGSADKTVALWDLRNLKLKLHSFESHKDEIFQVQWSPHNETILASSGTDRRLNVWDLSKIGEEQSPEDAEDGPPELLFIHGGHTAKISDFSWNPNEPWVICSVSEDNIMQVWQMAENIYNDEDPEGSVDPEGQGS

Question: What does the source list for AAAAAAAAAAGAGAGAGAUGAGUGUGAGUGUGAGUGUGAGUGAGAGAGAG (ssRNA) [TERRAmut]?
Answer: binding signal [1]: 12 Kd ratio TERRAmut/TERRA; binding signal [2]: 4 Kd ratio TERRAmut/TERRA
